# Measured values from article PMC6193675.
# Target: VRC01
# Assay: FACS; competition with YU2 gp120dsm for 3 nM VRC01
substance,measurement,value
Bal gp120,Ki,5 nM
